B1: 282 (protein)
chain: STAIAQEGAAPAAILHPEKWPRPATQRLIDPAVEKRVDALLKQLSVEEKVGQVIQGDIGTITPEDLRKYPLGSILAGGDSGPNGDDRAPPKEWLDLADAFYRVSLEKRPGHTPIPVLFGIDAVHGHGNIGSATIFPHNIALGMTRDPELLRRIGEVTAEEMAATGIDWTFAPALSVVRDDRWGRTYEGFSEDPEIVASYSAAIVEGVQGKYGSKDFMAPGRIVASAKHFLADGGTDQGRDQGDARCSEDELIRIHNAGYPPAIDAGVLTVMASFSSWQGIKHHGHKQLLTDVLKGQMGFNGFIVGDWNAHDQVPGCTKFNCPTSLIAGLDMYMAADSWKQLYENTLAQVKDGTIPMARLDDAVRRILRVKVLAGLFEKPAPKDRPGLPGLETLGSPEHRAVGREAVRKSLVLLKNDKGTLPLSPKARVLVAGDGADNIGKQSGGWTISWQGTGNRNDEFPGATSILGGIRDAVADAGGSVEFDVAGQYKTKPDVAIVVFGEEPYAEFQGDVETLEYQPDQKQDLALLKKLKDQGIPVVAVFLSGRPMWVNPELNASDAFVAAWLPGTEGGGVADVLFTDKAGKVQHDFAGKLSYSWPRTAAQTTVNRGDADYNPLFAYGYGLTYKDKSKVGTLPEESGVPAEARQNAGIYFRAGALRLPGRFL
B2: 287 (protein)
chain: STAIAQEGAAPAAILHPEKWPRPATQRLIDPAVEKRVDALLKQLSVEEKVGQVIQGDIGTITPEDLRKYPLGSILAGGDSGPNGDDRAPPKEWLDLADAFYRVSLEKRPGHTPIPVLFGIDAVHGHGNIGSATIFPHNIALGMTRDPELLRRIGEVTAEEMAATGIDWTFAPALSVVRDDRWGRTYEGFSEDPEIVASYSAAIVEGVQGKYGSKDFMAPGRIVASAKHFLADGGTDQGRDQGDARISEDELIRIHNAGYPPAIDAGVLTVMASFSSWQGIKHHGHKQLLTDVLKGQMGFNGFIVGDWNAHGQVPGCTKFNCPTSLIAGLDMYMAADSWKQLYENTLAQVKDGTIPMARLDDAVRRILRVKVLAGLFEKPAPKDRPGLPGLETLGSPEHRAVGREAVRKSLVLLKNDKGTLPLSPKARVLVAGDGADNIGKQSGGWTISWQGTGNRNDEFPGATSILGGIRDAVADAGGSVEFDVAGQYKTKPDVAIVVFGEEPYAEFQGDVETLEYQPDQKQDLALLKKLKDQGIPVVAVFLSGRPMWVNPELNASDAFVAAWLPGTEGGGVADVLFTDKAGKVQHDFAGKLSYSWPRTAAQTTVNRGDADYNPLFAYGYGLTYKDKSKVGTLPEESGVPAEARQNAGIYFRAGALRLPGRFL
B3: 284 (protein)
chain: STAIAQEGAAPAAILHPEKWPRPATQRLIDPAVEKRVDALLKQLSVEEKVGQVIQGDIGTITPEDLRKYPLGSILAGGDSGPNGDDRAPPKEWLDLADAFYRVSLEKRPGHTPIPVLFGIDAVHGHGNIGSATIFPHNIALGMTRDPELLRRIGEVTAEEMAATGIDWTFAPALSVVRDDRWGRTYEGFSEDPEIVASYSAAIVEGVQGKYGSKDFMAPGRIVASAKHFLADGGTDQGRDQGDARISEDELIRIHNAGYPPAIDAGVLTVMASFSSWQGIKHHGHKQLLTDVLKGQMRFNGFIVGDWNAHEQVPGCTKFNCPTSLIAGLDMYMAADSWKQLYENTLAQVKDGTIPMARLDDAVRRILRVKVLAGLFEKPAPKDRPGLPGLETLGSPEHRAVGREAVRKSLVLLKNDKGTLPLSPKARVLVAGDGADNIGKQSGGWTISWQGTGNRNDEFPGATSILGGIRDAVADAGGSVEFDVAGQYKTKPDVAIVVFGEEPYAEFQGDVETLEYQPDQKQDLALLKKLKDQGIPVVAVFLSGRPMWVNPELNASDAFVAAWLPGTEGGGVADVLFTDKAGKVQHDFAGKLSYSWPRTAAQTTVNRGDADYNPLFAYGYGLTYKDKSKVGTLPEESGVPAEARQNAGIYFRAGALRLPGRFL
B4: 278 (protein)
chain: STAIAQEGAAPAAMLHPEKWPRPATQRLIDPAVEKRVDALLKQLSVEEKVGQVIQGDIGTITPEDLRKYPLGSILAGGDSGPNGDDRAPPKEWLDLADAFYRVSLEKRPGHTPIPVLFGIDAVHGHGNIGSATIFPHNIALGMTRDPELLRRIGEVTAEEMAATGIDWTFAPALSVVRDDRWGRTYEGFSEDPEIVASYSPAIVEGVQGKYGSKDFMAPGRIVASAKHFLADGGTDQGRDQGDARISEDELIRIHNAGYPPAIDAGVLTVMASFSSWQGIKHHGHKQLLTDVLKGQMGFNGFIVGDWNAHDQVPGCTKFNCPTSLIAGLDMYMAADSWKQLYENTLAQVKDGTIPMARLDDAVRRILRVKVLAGLFEKPAPKDRPGLPGLETLGSPEHRAVGREAVRKSLVLLKNDKGTLPLSPKARVLVAGDGADNIGKQSGGWTISWQGTGNRNDEFPGATSILGGIRDAVADAGGSVEFDVAGQYKTKPDVAIVVFGEEPYAEFRGDVETLEYQPDQKQDLTLLKKLKDQGIPVVAVFLSGRPMWVNPELNASDAFVAAWLPGTEGGGVADVLFTDKAGKVQHDFAGKLSYSWPRTAAQTTVNRGDADYNPLFAYGYGLTYKDRSKVGTLPEESGVPAEARQN
B5: 283 (protein)
chain: STAIAQEGAAPAAILHPEKWPRPATQRLIDPAVEKRVDALLKQLSVEEKVGQVIQGDIGTITPEDLRKYPLGSILAGGDSGPNGDDRAPPKEWLDLADAFYRVSLEKRPGHTPIPVLFGIDAVHGHGNIGSATIFPHNIALGMTRDPELLRRIGEVTAEEMAATGIDWTFAPALSVVRDDRWGRTYEGFSEDPEIVASYSAAIVEGVQGKYGSKDFMAPGRIVASAKHFLADGGTDQGRDQGDARISEDELIRIHNAGYPPAIDAGVLTVMASFSSWQGIKHHGHKQLLTDVLKGQMGFNGFIVGDWNAHDQVPGCTKFNCPTSLIAGLDMYMAADSWKQLYENTLAQVKDGTIPMARLDDAVRRILRVKMLAGLFEKPAPKDRPGLPGLETLGSPEHRAVGREAVRKSLVLLKNDKGTLPLSPKARVLVAGDGADNIGKQSGGWTISWQGTGNRNDEFPGATSILGGIRDAVADAGGSVEFDVAGQYKTKPDVAIVVFGEEPYAEFQGDVETLEYQPDQKQDLALLKKLKDQGIPVVAVFLSGRPMWVNPELNASDAFVAAWLPGTEGGGVADVLFTDKAGKVQHDFAGKLSYSWPRTAAQTTVNRGDADYNPLFAYGYGLTYKDKSKVGTLPEESGVP
B6: 285 (protein)
chain: STAIAQEGAAPAAILHPEKWPRPATQRLIDPAVEKRVDALLKQLSVEEKVGQVIQGDIGTITPEDLRKYPLGSILAGGDSGPNGDDRAPPKEWLDLADAFYRVSLEKRPGHTPIPVLFGIDAVHGHGNIGSATIFPHNIALGMTRDPELLRRIGEVTAEEMAATGIDWTFAPALSVVRDDRWGRTYEGFSEDPEIVASYSAAIVEGVQGKYGSKDFMAPGRIVASAKHFLADGGTDQGRDQGDARISEDELIRIHNAGYPPAIDAGVLTVMASFSSWQGIKHHGHKQLLTDVLKGQMGFNGFIVGDWNAHDQVPGCTKFNCPTSLIAGLDMYMAADSWKQLYENTLAQVKDGTIPMARLDDAVRRILRVKVLAGLFEKPAPKDRPELPGLETLGSPEHRAVGREAVRKSLVLLKNDKGTLPLSPKARVLVAGDGADNIGKQSGGWTISWQGTGNRNDEFPGATSILGGIRDAVADAGGSVEFDVAGQYKTKPDVAIVVFGEEPYAEFQGDVETLEYQPDQKQDLALLKKLKDQGIPVVAVFLSGRPMWVNPELNASDAFVAAWLPGTEGGGVADVLFTDKAGKVQHDFAGKLSYSWPRTAAQTTVNRGDADYNPLFAYGYGLTYKDKSKVGTLPEESGVP
B7: 215 (protein)
chain: STAIAQEGAPPAAILHPEKWPRPATQRLIDPAVEKRVDALLKQLSVEEKVGQVIQGDIGTITPEDLRKYPLGSILAGGDSGPNGDDRAPPKEWLDLADAFYRVSLEKRPGHTPIPVLFGIDAVHGHGNIGSATIFPHNIALGMTRDPELLRRIGEVTAEEMAATGIDWTFAPALSVVRDDRWGRTYEGFSEDPEIVASYSAAIVEGVQGKYGSKDFMAPGRIVASAKHFLADGGTDQGRDQGDARISEDELIRIHNAGYPPAIDAGVLTVMASFSSWQGIKHHGHKQLLTDVLKGQMGFNGFIVGDWNAHDQVPGCTKFNCPTSLIAGLDMYMAADSWKQLYENTLAQVKDGTIPMARLDDAVRRILRVKVLAGLFEKPAPKDRPGLPGLETLGSPEHRAVGREAVRKSLVLLKNDKGTLPLSPKARVLVAGDGADNIGKQSGGWTISWQGTGNRNDEFPGATSILGGIRDAVADAGGSVEFDVAGQYKTKPDVAIVVFGEEPYAEFQGDVETLEYQPDQKQDLALLKKLKDQGIPVVAVFLSGRPMWVNPELNASDAFVAAWLPGTEGGGVADVLFTDKAGKVQHDFAGKLSYSWPRTAAQTTVNRGDADYNPLFAYGYGLTYKDKSKVGTLPEESGVP
B8: 214 (protein)
chain: STLIAQEGAAPAAILHPEKWPRPATQRLIDPAVEKRVDALLKQLSVEEKVGQVIQGDIGTITPEDLRKYPLGSILAGGDSGPNGDDRAPPKEWLDLADAFYRVSLEKRPGHTPIPVLFGIDAVHGHGNIGSATIFPHNIALGMTRDPELLRRIGEVTAEEMAATGIDWTFAPALSVVRDDRWGRTYEGFSEDPEIVASYSAAIVEGVQGKYGSKDFMAPGRIVASAKHFLADGGTDQGRDQGDARISEDELIRIHNAGYPPAIDAGVLTVMASFSSWQGIKHHGHKQLLTDVLKGQMGFNGFIVGDWNAHDQVPGCTKFNCPTSLIAGLDMYMAADSWKQLYENTLAQVKDGTIPMARLDDAVRRILRVKVLAGLFEKPAPKDRPGLPGLETLGSPEHRAVGREAVRKSLVLLKNDKGTLPLSPKARVLVAGDGADNIGKQSGGWTISWQGTGNRNDEFPGATSILGGIRDAVADAGGSVEFDVAGQYKTKPDVAIVVFGEEPYAEFQGDVETLEYQPDQKQDLALLKKLKDQGIPVVAVFLSGRPMWVNPELNASDAFVAAWLPGTEGGGVADVLFTDKAGKVQHDFAGKLSYSWPRTAAQTTVNRGDADYNPLFAYGYGLTYKDKSKVGTLPEESGVP

experiment: High throughput cellobiose assay: fold improvement in cellobiase activity of CelA variants over a control enzyme (Tables 2A-2D, 3, 5, 6, 7); format: biochemical; settings: 3.3 g/l cellobiose, 55° C. and pH 5.3 (incubation overnight)

Molecule | Fold improvement over Control Variant No. 94 from Table 2B
B1 | ++++ (++++ = 1.1 to 1.5 fold improvement over Control No. 3, Variant No. 94)
B2 | ++++ (++++ = 1.1 to 1.5 fold improvement over Control No. 3, Variant No. 94)
B3 | ++++ (++++ = 1.1 to 1.5 fold improvement over Control No. 3, Variant No. 94)
B4 | ++++ (++++ = 1.1 to 1.5 fold improvement over Control No. 3, Variant No. 94)
B5 | ++++ (++++ = 1.1 to 1.5 fold improvement over Control No. 3, Variant No. 94)
B6 | ++++ (++++ = 1.1 to 1.5 fold improvement over Control No. 3, Variant No. 94)
B7 | ++++ (++++ = 1.1 to 1.5 fold improvement over Control No. 3, Variant No. 94)
B8 | ++++ (++++ = 1.1 to 1.5 fold improvement over Control No. 3, Variant No. 94)

From patent US8357523B2, “Beta-glucosidase variant enzymes and related polynucleotides” (Codexis, Inc., priority 2009, dated 2013)
